For four molecules, pKd results are on record in PMC9482650, “Quantitative fragmentomics allow affinity mapping of interactomes” (Nature Communications, 2022).

Some targets named below: Inadl_9, Q8NI35; DLG1_3, Q12959; AHNAK1, Q09666; GRIP2_6, Q9C0E4; GORASP1, Q9BQQ3; GOPC, Q9HD26; MAGI1_1, Q96QZ7; GRID2IP_2, A4D2P6; PARD3_3, Q8TEW0; DLG2_3, Q15700; Inadl_8, Q8NI35; GRIP2_7, Q9C0E4.
Test in all cases: holdup assay
Common to all, as to parameters: key: below the threshold = too weak to quantify, mostly under pKd 3.1 to 4
Common to all, as to details: plain residues with an end cap or a label only (N-terminal biotin on a linker: ado-ado)

A further test deals with T1, SNTG1, Q9NSN8.
T1 sequence (Q9NSN8 52-150, limits assumed, looked up): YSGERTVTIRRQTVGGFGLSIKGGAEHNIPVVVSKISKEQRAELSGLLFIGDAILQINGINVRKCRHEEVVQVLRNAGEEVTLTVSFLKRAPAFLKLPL

For another test, the target named is T2, TJP3_3, O95049.
T2 sequence (O95049 375-456, limits assumed, looked up): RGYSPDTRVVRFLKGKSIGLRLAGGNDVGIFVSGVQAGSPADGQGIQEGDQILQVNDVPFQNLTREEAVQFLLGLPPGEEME

The target of a further test is T3, SNTG2, Q9NY99.
T3 sequence (Q9NY99 68-166, limits assumed, looked up): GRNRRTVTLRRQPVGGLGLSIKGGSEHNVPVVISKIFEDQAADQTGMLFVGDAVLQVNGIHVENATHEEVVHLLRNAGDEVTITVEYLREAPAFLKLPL

The target of a further test is T4, NHERF3_1, Q5T2W1.
T4 sequence (Q5T2W1 4-100, limits assumed, looked up): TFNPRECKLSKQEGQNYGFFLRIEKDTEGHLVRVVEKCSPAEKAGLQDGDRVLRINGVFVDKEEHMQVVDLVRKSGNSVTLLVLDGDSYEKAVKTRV

In a further test the target is T5, APBA2_1, Q99767.
T5 sequence (Q99767 563-664, limits assumed, looked up): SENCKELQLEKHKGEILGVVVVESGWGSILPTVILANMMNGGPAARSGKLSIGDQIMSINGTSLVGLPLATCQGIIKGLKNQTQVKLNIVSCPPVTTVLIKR

The next test concerns the target T6, GRIP1_2, Q9Y3R0.
T6 sequence (Q9Y3R0 145-248, limits assumed, looked up): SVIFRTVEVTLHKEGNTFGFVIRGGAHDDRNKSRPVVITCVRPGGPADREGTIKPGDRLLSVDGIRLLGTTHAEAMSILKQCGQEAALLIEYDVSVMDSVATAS

The next test has as its target T7, APBA1_1, Q02410.
T7 sequence (Q02410 651-752, limits assumed, looked up): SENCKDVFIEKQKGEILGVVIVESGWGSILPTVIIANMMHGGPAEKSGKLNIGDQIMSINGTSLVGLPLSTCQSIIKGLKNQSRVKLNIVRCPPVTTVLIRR

The target in another test is T8, MPDZ_5, O75970.
T8 sequence (O75970 695-796, limits assumed, looked up): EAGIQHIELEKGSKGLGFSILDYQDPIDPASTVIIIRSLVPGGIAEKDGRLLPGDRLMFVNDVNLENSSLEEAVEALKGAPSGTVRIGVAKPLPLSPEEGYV

Another test addresses T9, SNTB1, Q13884.
T9 sequence (Q13884 107-205, limits assumed, looked up): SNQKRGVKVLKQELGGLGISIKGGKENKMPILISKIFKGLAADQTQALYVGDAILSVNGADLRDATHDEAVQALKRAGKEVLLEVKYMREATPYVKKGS

A further test deals with T10, APBA3_1, O96018.
T10 sequence (O96018 389-490, limits assumed, looked up): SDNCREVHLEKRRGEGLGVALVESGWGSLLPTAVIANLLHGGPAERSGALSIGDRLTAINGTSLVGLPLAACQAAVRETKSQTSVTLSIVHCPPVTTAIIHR

The target in a further test is T11, GRIP1_5, Q9Y3R0.
T11 sequence (Q9Y3R0 568-668, limits assumed, looked up): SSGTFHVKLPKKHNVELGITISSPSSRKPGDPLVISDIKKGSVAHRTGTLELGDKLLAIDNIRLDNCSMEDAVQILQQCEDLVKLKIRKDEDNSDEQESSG

The target in another test is T12, SHANK1, Q9Y566.
T12 sequence (Q9Y566 658-767, limits assumed, looked up): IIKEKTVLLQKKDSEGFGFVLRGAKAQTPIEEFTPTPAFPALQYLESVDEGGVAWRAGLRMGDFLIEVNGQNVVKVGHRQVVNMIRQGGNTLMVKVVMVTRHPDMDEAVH

Chain of AHNAK1, Q09666 (Q09666 4-100): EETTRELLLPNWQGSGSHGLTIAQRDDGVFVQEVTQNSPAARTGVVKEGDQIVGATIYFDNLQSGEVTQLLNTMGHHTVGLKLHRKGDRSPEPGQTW
Chain of GRID2IP_2, A4D2P6 (A4D2P6 272-370): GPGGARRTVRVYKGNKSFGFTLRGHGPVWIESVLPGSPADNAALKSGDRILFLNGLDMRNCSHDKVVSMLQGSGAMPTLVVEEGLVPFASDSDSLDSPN
Chain of DLG1_3, Q12959 (Q12959 457-571): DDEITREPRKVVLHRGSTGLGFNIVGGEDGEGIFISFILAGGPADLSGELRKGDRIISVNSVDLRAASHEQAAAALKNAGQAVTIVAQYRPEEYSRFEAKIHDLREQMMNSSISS
Chain of MAGI1_1, Q96QZ7 (Q96QZ7 1-106): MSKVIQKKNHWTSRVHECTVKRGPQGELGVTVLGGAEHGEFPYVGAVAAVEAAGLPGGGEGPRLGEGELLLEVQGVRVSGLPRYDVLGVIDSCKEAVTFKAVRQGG
Chain of GORASP1, Q9BQQ3 (Q9BQQ3 1-208): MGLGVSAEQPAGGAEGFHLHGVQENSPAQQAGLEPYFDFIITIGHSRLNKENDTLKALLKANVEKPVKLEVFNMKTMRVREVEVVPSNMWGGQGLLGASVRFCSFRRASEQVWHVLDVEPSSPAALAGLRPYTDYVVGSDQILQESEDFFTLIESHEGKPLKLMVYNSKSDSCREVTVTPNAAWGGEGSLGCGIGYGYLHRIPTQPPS
Chain of Inadl_8, Q8NI35 (Q8NI35 1425-1530): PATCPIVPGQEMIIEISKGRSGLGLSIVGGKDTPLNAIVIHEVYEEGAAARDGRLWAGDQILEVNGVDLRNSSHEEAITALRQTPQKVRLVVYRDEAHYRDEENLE
Chain of PARD3_3, Q8TEW0 (Q8TEW0 582-685): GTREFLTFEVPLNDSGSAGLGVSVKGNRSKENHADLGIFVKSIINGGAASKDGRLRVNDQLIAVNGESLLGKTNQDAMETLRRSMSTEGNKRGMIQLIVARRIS
Chain of GRIP2_7, Q9C0E4 (Q9C0E4 934-1023): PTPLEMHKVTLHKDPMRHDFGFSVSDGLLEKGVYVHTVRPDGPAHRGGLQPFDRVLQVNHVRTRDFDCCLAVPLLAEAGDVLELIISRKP
Chain of GRIP2_6, Q9C0E4 (Q9C0E4 648-740): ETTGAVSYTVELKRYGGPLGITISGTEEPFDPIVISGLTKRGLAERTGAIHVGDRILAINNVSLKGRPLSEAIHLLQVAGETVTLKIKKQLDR
Chain of Inadl_9, Q8NI35 (Q8NI35 1530-1615): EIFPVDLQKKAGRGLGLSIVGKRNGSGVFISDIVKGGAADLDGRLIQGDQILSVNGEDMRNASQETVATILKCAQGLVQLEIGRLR

B1: GAGE12J, A6NER3 (peptide)
chain: PEEGKKQSQC
As usually defined, the pKd is the negative decadic logarithm of the Kd, by convention in mol/L. In the case of B1, the negative-log Kd (pKd) entry was “below the threshold” with Inadl_9, Q8NI35; “below the threshold” with SNTG1, Q9NSN8; “below the threshold” with TJP3_3, O95049; 3.51 with SNTG2, Q9NY99; “below the threshold” with DLG1_3, Q12959; 3.68 with NHERF3_1, Q5T2W1. Also, the pKd result with AHNAK1, Q09666 is recorded as “below the threshold”; in the test with GRIP2_6, Q9C0E4, “below the threshold”; with APBA2_1, Q99767 it was “below the threshold”; with GRIP1_2, Q9Y3R0, “below the threshold”; in the test with GORASP1, Q9BQQ3, “below the threshold”; with GOPC, Q9HD26 it was “below the threshold”. The negative logarithm of the Kd (pKd) result with MAGI1_1, Q96QZ7 was “below the threshold”; in the test with APBA1_1, Q02410, “below the threshold”; in the test with GRID2IP_2, A4D2P6, 3.49; in the test with MPDZ_5, O75970, “below the threshold”; in the test with SNTB1, Q13884 it was “below the threshold”; in the test with PARD3_3, Q8TEW0, “below the threshold”. Further, the negative logarithm of the Kd (pKd) was 3.61 in the test with DLG2_3, Q15700; “below the threshold” with APBA3_1, O96018; “below the threshold” with GRIP1_5, Q9Y3R0; 3.5 with Inadl_8, Q8NI35; “below the threshold” with GRIP2_7, Q9C0E4; “below the threshold” in the test with SHANK1, Q9Y566.

B2: ITK, Q08881 (peptide)
chain: QLAEIAESGL
Turning to B2, the pKd result is “below the threshold” in the test with Inadl_9, Q8NI35; 3.72 in the test with SNTG1, Q9NSN8; “below the threshold” in the test with TJP3_3, O95049; 3.82 in the test with SNTG2, Q9NY99; 3.86 with DLG1_3, Q12959; 4.76 with NHERF3_1, Q5T2W1. In addition, the pKd result is “below the threshold” in the test with AHNAK1, Q09666; 3.48 with GRIP2_6, Q9C0E4; 3.58 in the test with APBA2_1, Q99767; “below the threshold” in the test with GRIP1_2, Q9Y3R0; 3.53 in the test with GORASP1, Q9BQQ3; 3.73 with GOPC, Q9HD26. In addition, the negative logarithm of the Kd (pKd) was 3.62 with MAGI1_1, Q96QZ7; 3.52 with APBA1_1, Q02410; 3.61 with GRID2IP_2, A4D2P6; 3.6 with MPDZ_5, O75970; 3.67 with SNTB1, Q13884; “below the threshold” in the test with PARD3_3, Q8TEW0. Besides, the pKd result with DLG2_3, Q15700 was “below the threshold”; in the test with APBA3_1, O96018, “below the threshold”; in the test with GRIP1_5, Q9Y3R0, “below the threshold”; with Inadl_8, Q8NI35, 3.52; in the test with GRIP2_7, Q9C0E4 it was 3.47; with SHANK1, Q9Y566, 3.76.

B3: DUSP10, Q9Y6W6 (peptide)
chain: PKLMGVETVV
In the case of B3, the pKd is 3.55 with Inadl_9, Q8NI35; 4.47 in the test with SNTG1, Q9NSN8; “below the threshold” with TJP3_3, O95049; 4.51 with SNTG2, Q9NY99; 4.52 in the test with DLG1_3, Q12959; “below the threshold” with NHERF3_1, Q5T2W1. The pKd entry in the test with AHNAK1, Q09666 was “below the threshold”; in the test with GRIP2_6, Q9C0E4, “below the threshold”; in the test with APBA2_1, Q99767, “below the threshold”; with GRIP1_2, Q9Y3R0, “below the threshold”; with GORASP1, Q9BQQ3 it was 4.36; with GOPC, Q9HD26, 4.25. The pKd with MAGI1_1, Q96QZ7 was 3.52; with APBA1_1, Q02410, “below the threshold”; in the test with GRID2IP_2, A4D2P6, “below the threshold”; with MPDZ_5, O75970, 3.58; in the test with SNTB1, Q13884 it was 5.17; with PARD3_3, Q8TEW0, 3.75. In addition, the pKd is 4.21 with DLG2_3, Q15700; “below the threshold” in the test with APBA3_1, O96018; “below the threshold” with GRIP1_5, Q9Y3R0; 3.5 with Inadl_8, Q8NI35; “below the threshold” in the test with GRIP2_7, Q9C0E4; “below the threshold” with SHANK1, Q9Y566.

B4: ADGRG1, Q9Y653 (peptide)
chain: SSGSTSSSRI
For the molecule B4, the pKd result was “below the threshold” with Inadl_9, Q8NI35; “below the threshold” with SNTG1, Q9NSN8; “below the threshold” in the test with TJP3_3, O95049; 3.68 with SNTG2, Q9NY99; 3.87 with DLG1_3, Q12959; 4.48 in the test with NHERF3_1, Q5T2W1. The negative logarithm of the Kd (pKd) result with AHNAK1, Q09666 was “below the threshold”; in the test with GRIP2_6, Q9C0E4, “below the threshold”; with APBA2_1, Q99767, “below the threshold”; with GRIP1_2, Q9Y3R0, “below the threshold”; with GORASP1, Q9BQQ3 it was “below the threshold”; with GOPC, Q9HD26 it was 4. Also, the pKd result in the test with MAGI1_1, Q96QZ7 is “below the threshold”; with APBA1_1, Q02410 it was “below the threshold”; in the test with GRID2IP_2, A4D2P6, 4.02; with MPDZ_5, O75970, “below the threshold”; with SNTB1, Q13884, “below the threshold”; with PARD3_3, Q8TEW0, “below the threshold”. In addition, the pKd with DLG2_3, Q15700 is 3.73; in the test with APBA3_1, O96018 it was “below the threshold”; with GRIP1_5, Q9Y3R0 it was “below the threshold”; with Inadl_8, Q8NI35, 3.7; in the test with GRIP2_7, Q9C0E4, “below the threshold”; with SHANK1, Q9Y566 it was 4.31.
